The values that follow come from the supplement of paper PMC12042874.

± gives the uncertainty stated by the source.

This series can be described thus: amyloid nucleation score (Sup35N fusion, yeast selection) (log enrichment); library NNK3; higher = more nucleation; inactive = no reads after selection. The essentials: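 Peptides of 20 random codons, each fused to Sup35N, were expressed in psi-negative yeast. Cells were induced with 100 μM copper sulfate for 24 hours and grown 7 days at 30°C on medium lacking adenine and uracil, and plasmid inserts before and after selection were Illumina-sequenced. Nucleation scores are DiMSum log enrichments of output over input reads, centred on the mode score of non-aggregating sequences, and sequences under 100 input reads were excluded.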
For the substance SLSPDPFEFLLLSLLLRSAV, the amyloid nucleation score entry is “inactive”.
With SLVGGICVRHREDVDTQKFK the entry was “inactive”; with SLVPDNAANAMRPTWINLWW, 1.84 ± 0.078.
Consider SLVTFMLLMIKGMSGYFRTV, for which the amyloid nucleation score entry is “inactive”.
With SLWMFCYSDSYRCKDNFLRN the entry was “inactive”; with SLYGKDYTKTVFSDAVFVCF, “inactive”.
With SMCKDFSAACESICGIPVGY the entry was “inactive”; with SMGLR, “inactive”; with SMGRYDLLPTPDVVSLSYNM, “inactive”.
In the case of SMKSGSATCGIN, the amyloid nucleation score result was “inactive”.
Take SMNFLICMIWSIVS: the amyloid nucleation score was 1.02 ± 0.21.
With SMQRNSQFLLAQYTDPGGN, the amyloid nucleation score entry is “inactive”.
On to SMVGVFQKVFKTITTTYADV, for which the amyloid nucleation score entry is “inactive”.
As to SMWQQVYSLSTLF, the amyloid nucleation score result is “inactive”.
For SNEGE, the amyloid nucleation score result was “inactive”.
Substance SNFVIVSWIVTNVLRM returned an amyloid nucleation score of 0.869 ± 0.094.
SNGLATLSLSWCNCIKGGSL registered an amyloid nucleation score of 2.9 ± 0.052.
As for SNHVWFDLFGEYDASCFCTV, the amyloid nucleation score result is “inactive”.
Consider SNIGHM, for which the amyloid nucleation score result is “inactive”.
SNLDFMMGINSFRRVKAEPG showed an amyloid nucleation score of -0.251 ± 0.57.
With SNLLS the entry was “inactive”; with SNLNWPWKYPNMWFLLS, “inactive”; with SNLSNPLIVMKFYQAAMGVH, “inactive”.
Regarding SNQLSFLYNN, the amyloid nucleation score is -0.409 ± 0.76.
Turning to SNSDVN, the amyloid nucleation score result was “inactive”.
In the case of SNSYHIVVYVRYGHSHG, the amyloid nucleation score came to 2.62 ± 0.083.
Turning to SNTFTPKGNPLWSSVCVFHQ, the amyloid nucleation score entry was “inactive”.
With SNVCINLAGYDYIFFRCMMG the figure was 0.293 ± 0.24.
Consider SNVLGWLRKLYS, for which the amyloid nucleation score result was “inactive”.
As for SNWKGEISIHEGMLGCT, the amyloid nucleation score entry was “inactive”.
For the substance SNWVISVLVRVNLAYAYLTD, the amyloid nucleation score result is “inactive”.
SPCYISINTFPVRKILYPCI showed an amyloid nucleation score of -0.264 ± 0.64.
For SPDVLFESKYRFWDMLSQIA, the amyloid nucleation score result is “inactive”.
With SPLLGINYRVFNVCLLERR the figure was 0.909 ± 0.21; with SPLSRWLVDNTGPLGGSLSR, “inactive”; with SPNNTTFSHYRFCLL, “inactive”.
Turning to SPNWGLLGICLSTSRVQAL, the amyloid nucleation score came out at 1.86 ± 0.082.
Turning to SPPLYSYRGRYMERYHSKWN, the amyloid nucleation score entry is “inactive”.
Take SPPTGYRASNWRGLGSVDGW: the amyloid nucleation score result was “inactive”.
Consider SPVAYRSTWFVFRNNSHYDQ, for which the amyloid nucleation score result was “inactive”.
Take SPWAMGCECLVRGGLEKYAK: the amyloid nucleation score entry was “inactive”.
Turning to SQKEGNKDRPVCVSGNSSCS, the amyloid nucleation score entry was “inactive”.
With SQVLWGTSRGLYYTDRNFTN, the amyloid nucleation score result is “inactive”.
With SQVVSRSLVRLEQRNAQKSV, the amyloid nucleation score entry was “inactive”.
For SQYHQASNAMWVLFSGI, the amyloid nucleation score result was “inactive”.
Turning to SRCIDGSAWASVAQRRSFSE, the amyloid nucleation score was -0.098 ± 0.85.
As for SRDMCAWWVYSGSSQSNECM, the amyloid nucleation score result was “inactive”.
With SREWSKSVVCTYLTMRGRLS the entry was “inactive”; with SRFDDCSVYRESWVSIVRLS, “inactive”; with SRLTAFMNYVGCRMVSGWTR, “inactive”.
Take SRMTIIWVTVRISRNGTWNF: the amyloid nucleation score entry was “inactive”.
As for SRMTIVKSWKRMLGRLLMRL, the amyloid nucleation score entry was “inactive”.
With SRQLQPYYSVFRCLVRGSIK the entry was “inactive”; with SRQNIFLLRLKTMTGQSVNI, “inactive”; with SRRNIPVGGLSNWLPVWSVG, “inactive”.
In the case of SRRSHWFWEPSDTCASFTRP, the amyloid nucleation score entry was “inactive”.
In turn, SRRSMHRVVSHVREGS yielded an amyloid nucleation score of -0.164 ± 0.96.
Turning to SRRTIVNQSSF, the amyloid nucleation score result is “inactive”.
As for SRRVISEHSMEGNTID, the amyloid nucleation score entry was “inactive”.
With SRVHPPLWIKCTVGMVPQTC the entry was “inactive”; with SRVLDGVWRAVLSCFQGSSI, 0.867 ± 0.12.
For the substance SRVNCLARLRSPARLMPMVR, the amyloid nucleation score entry is “inactive”.
SRWNK: the amyloid nucleation score entry was “inactive”.
Regarding SRWYFGLLLMNNTHTVNVPL, the amyloid nucleation score entry was “inactive”.
Regarding SRYLGKGFVSGTCDVGCGLN, the amyloid nucleation score result was “inactive”.
With SSDIIHGNDVRSLVRRDRSL the entry was “inactive”.
For the substance SSDMFFRYESPVH, the amyloid nucleation score result is “inactive”.
Consider SSDYTLVEILSVLFCPVGCS, for which the amyloid nucleation score entry was “inactive”.
In turn, SSELLLHGGTYYKIIYK returned an amyloid nucleation score of 0.586 ± 0.12.
Regarding SSESDVNLDVMSKYKFGNIH, the amyloid nucleation score result is “inactive”.
For SSFGQICIRSMQYLVGCKWC, the amyloid nucleation score result is “inactive”.
With SSFNFTSIVLHIANLLHFFL, the amyloid nucleation score entry was “inactive”.
With SSFQSYYTSSDMTEF, the amyloid nucleation score entry is “inactive”.
SSISVRENYFMASRVMMVGC gave an amyloid nucleation score of 0.234 ± 0.56.
Regarding SSITRVEKSCIFLCTALMLR, the amyloid nucleation score result is “inactive”.
Regarding SSKCWSTSCFFKGKSLSSLG, the amyloid nucleation score result is “inactive”.
Take SSLTSNCPRKALKREVVRHW: the amyloid nucleation score entry was “inactive”.
With SSMVTSLGCVLYKL the entry was “inactive”; with SSNLDTTVCFPVCSAPELEG, “inactive”; with SSPSWFTYLVKQVALRSVTQ, 1.55 ± 0.1.
SSQLDHVRLSGYVLTLEGPF: the amyloid nucleation score result was “inactive”.
With SSRRSNYASSDPIWIVSLFG the entry was “inactive”.
For SSRVNKGEVARLVVSIPIIH, the amyloid nucleation score entry is “inactive”.
SSSAFCGVAIRALIAGGKGY: the amyloid nucleation score result was “inactive”.
Consider SSSKMW, for which the amyloid nucleation score entry is “inactive”.
Consider SSSQTISQGDSGHLHYKVWS, for which the amyloid nucleation score result was “inactive”.
With SSSTFPSSKIDYGTIR the entry was “inactive”; with SSVSFVITGPVAFVWNQGLV, 2.56 ± 0.083.
With SSYIESQELHSWAVQLRLLV the entry was “inactive”.
Take STCKKNWNIARRI: the amyloid nucleation score entry is “inactive”.
With STIDKCLYINIAIYAIFPDF the figure was 1.31 ± 0.12.
As to STKSSLRYNLEQLPDLLKIV, the amyloid nucleation score result is “inactive”.
With STNGLLTSNS the entry was “inactive”.
On to STRRSYNPCYWSGLYSSIGH, for which the amyloid nucleation score entry is “inactive”.
For the substance STSVSLTWNPKKRLYYLLTI, the amyloid nucleation score result is “inactive”.
